Test results from US20110190477A1 (G2 INFLAMMATION, published 2011).

Legend:
human C5a receptor [1] = target: T1, human C5a receptor (human, UniProt P21730 1-350); test: PK/PD model (NONMEM) fitted to serum concentration and receptor occupancy in hC5aR transgenic mice, toxicology study column
T1 construct: On human neutrophils, L1.2/hC5aR transfectants or neutrophils of hC5aR knock-in mice; also called hC5aR; C5aR1
T1 chain: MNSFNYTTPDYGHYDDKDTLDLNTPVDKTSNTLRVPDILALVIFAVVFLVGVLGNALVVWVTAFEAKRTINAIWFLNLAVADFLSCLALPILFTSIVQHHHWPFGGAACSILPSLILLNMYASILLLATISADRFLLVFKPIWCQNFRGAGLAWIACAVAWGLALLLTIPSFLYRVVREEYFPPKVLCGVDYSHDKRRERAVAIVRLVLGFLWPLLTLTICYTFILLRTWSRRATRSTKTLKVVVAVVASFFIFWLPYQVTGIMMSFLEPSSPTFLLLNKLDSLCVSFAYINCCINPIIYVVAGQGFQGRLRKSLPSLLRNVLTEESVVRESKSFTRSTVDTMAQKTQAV
Excerpt: (§1) NONMEM VI (non-linear mixed effects modelling software) with first order conditional estimation (FOCE) was used for modelling, and S-PLUS® 8.0 (Insigthful) was used for graphics and data handling. Evaluation of—and discrimination between—intermediate models was based on objective function values and standard graphical evaluation methods. In terms of objective function value, changes in this value were assumed to be chi-squared distributed (for nested models), and criteria for expanding the model were defined and used accordingly.
(§2) Toxicokinetics from the toxicology study in transgenic mice and PK/PD data from the pharmacology study was integrated to assess the relationship between pharmacokinetics and occupancy. […] This is consistent with other studies, observing higher clearance for high doses, due to saturation of the FcRN receptor (Hansen and Balthasar, 2002).

human C5a receptor [2] = target: T1, human C5a receptor; test: flow cytometry of bound hAb-Q (anti-hIgG-FITC) on human neutrophils, pre-chemotaxis samples
Protocol: (§3) The FACSCalibur flow cytometer was set up with compensation parameters established for channel FL-1. Samples were acquired to exclude dead cells and debris. Neutrophils were identified based on FSC and SSC. The level of bound hAb-Q (anti-hIgG-FITC) or free C5aR (hAb-Q-FITC) was determined by determining the FITC (FL-1) mean fluorescence intensity (MFI) of the neutrophils in a sample.
(§4) Four experiments were carried out. Briefly, purified neutrophils isolated from the venous blood of a healthy volunteer were preincubated for 10 min with hAb-Q at concentrations ranging from 0.001 to 100 μg/ml. A small aliquot of this mix was taken to determine the amount of antibody bound receptor (% receptor occupancy) and the remainder was placed in the upper chamber of a transwell plate. C5a (10 nM) was placed in the lower chamber. After 30 min incubation, the number of cells that had migrated into the lower chamber was determined using FACS. The amount of bound antibody on the neutrophils in both the lower and upper chambers at the end of migration was also determined, using FITC-labelled anti-hIgG and flow cytometry. The level of free receptor (no bound antibody) was determined in one experiment by incubating the neutrophils with FITC-labelled hAb-Q before and after migration.

human C5a receptor [3] = target: T1, human C5a receptor; test: PK/PD model (NONMEM) fitted to serum concentration and receptor occupancy in hC5aR transgenic mice, pharmacology study column
Excerpt: as §1, §2

[4] = target: T2, chimeric receptor 11. mmHm (mouse; human, UniProt P30993 1-111; P30993 264-351, limits assumed); test: flow cytometry on transiently transfected L1.2 cells
T2 construct: Transiently expressed on mouse L1.2 cells
T2 sequence: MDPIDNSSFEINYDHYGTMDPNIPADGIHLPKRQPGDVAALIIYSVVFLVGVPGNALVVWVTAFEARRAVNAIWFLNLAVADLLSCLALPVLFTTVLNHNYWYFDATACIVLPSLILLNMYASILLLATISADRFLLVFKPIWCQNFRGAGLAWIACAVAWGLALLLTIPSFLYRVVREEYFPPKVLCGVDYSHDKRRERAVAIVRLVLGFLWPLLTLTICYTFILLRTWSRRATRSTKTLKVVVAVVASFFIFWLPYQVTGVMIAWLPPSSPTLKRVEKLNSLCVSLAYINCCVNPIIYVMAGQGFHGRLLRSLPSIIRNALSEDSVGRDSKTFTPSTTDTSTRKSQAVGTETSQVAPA
Protocol: (§5) A series of chimeric receptors comprising segments of mouse and human C5aR were constructed to identify the region of the C5a receptor that the antibodies bound. […] Each recombinant vector (5 μg diluted in DMEM) encoding a different chimeric receptor was transfected into 5×10⁵ mouse L1.2 cells using Lipofectamine 2000 (Invitrogen). Cells were grown in DMEM or RPMI (Invitrogen) plus 10% foetal bovine serum (Hyclone). After 24 hours or 48 hours, cells were harvested by centrifugation at 1,500 rpm for 5 min and resuspended in FACS buffer (phosphate buffered saline plus 2% bovine serum albumin). For staining with hAb-Q, 0.5×10⁵ transfected cells were incubated with 5 or 10 μg/ml antibody in a volume of 50 μl per well at 4° C. for 20 minutes. Cells were pelleted as above and rinsed 3 times with 150 μl FACS buffer before addition of 50 μl FITC-conjugated anti-human IgG diluted 1:200 or 1:300 (Sigma, F1641). This mix was incubated for 20 min at 4° C. before cells were pelleted, washed with FACS buffer 3 times and finally resuspended in 150-200 μl FACS buffer. Samples were analysed on a FACS Calibur (BD Biosciences).
(§6) To confirm that the humanised antibody hAb-Q, which was derived from mouse mAb 7F3 by CDR grafting, and therefore should contain the same antigen-binding site, had the same staining pattern as 7F3, transiently transfected cells expressing the different chimeric human/mouse C5aR were stained with hAb-Q and analysed by flow cytometry. The pattern of staining by hAb-Q was identical to that observed with 7F3. There was no staining by the secondary antibody (anti-hIgG-FITC) alone.

[5] = target: T3, chimeric receptor 6. HmHH (human; mouse, UniProt P30993 93-111); test: as above
T3 construct: range 93-111; Transiently expressed on mouse L1.2 cells
T3 sequence: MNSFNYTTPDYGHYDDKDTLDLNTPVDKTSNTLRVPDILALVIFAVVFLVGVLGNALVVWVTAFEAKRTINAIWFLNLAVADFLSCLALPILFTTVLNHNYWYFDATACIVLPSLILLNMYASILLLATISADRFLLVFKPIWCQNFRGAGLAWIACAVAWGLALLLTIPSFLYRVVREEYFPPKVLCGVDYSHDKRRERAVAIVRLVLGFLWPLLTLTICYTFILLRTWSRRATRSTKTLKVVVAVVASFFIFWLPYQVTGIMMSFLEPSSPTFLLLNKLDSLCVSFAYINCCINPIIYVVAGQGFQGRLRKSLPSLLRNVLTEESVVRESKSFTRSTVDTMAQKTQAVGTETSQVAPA
Protocol: as §5, §6

human C5a receptor [6] = target: T1, human C5a receptor; test: flow cytometry of bound hAb-Q (anti-hIgG-FITC) on human neutrophils, post-chemotaxis lower chamber
Protocol: as §3, §4

B1: humanized anti-C5aR antibody hAb-Q (antibody, human IgG4 S228P, kappa)
light: DVVMTQSPLSLPVTLGEPASISCRSSQSLVHSNGNTYLHWYLQKPGQSPQLLIYKVSNRFSGVPDRFSGSGSGTDFTLKISRVEAEDVGVYFCSQSTLVPLTFGQGTKLEIKRTVAAPSVFIFPPSDEQLKSGTASVVCLLNNFYPREAKVQWKVDNALQSGNSQESVTEQDSKDSTYSLSSTLTLSKADYEKHKVYACEVTHQGLSSPVTKSFNRGEC
heavy: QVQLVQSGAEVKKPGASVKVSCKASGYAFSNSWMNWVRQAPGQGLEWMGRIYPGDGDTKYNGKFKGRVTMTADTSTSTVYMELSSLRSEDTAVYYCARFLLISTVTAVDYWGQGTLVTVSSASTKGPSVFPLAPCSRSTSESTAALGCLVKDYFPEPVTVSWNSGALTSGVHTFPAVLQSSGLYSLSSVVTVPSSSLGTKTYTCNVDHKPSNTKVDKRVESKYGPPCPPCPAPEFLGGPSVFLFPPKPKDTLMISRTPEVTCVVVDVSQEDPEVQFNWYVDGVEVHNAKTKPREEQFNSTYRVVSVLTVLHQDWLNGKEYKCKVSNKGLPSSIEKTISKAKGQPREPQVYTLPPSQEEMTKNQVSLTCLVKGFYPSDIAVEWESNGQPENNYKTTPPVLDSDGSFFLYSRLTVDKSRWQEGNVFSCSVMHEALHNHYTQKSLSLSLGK
notes: IgG4 with the Ser228Pro mutation; also called antibody Q; anti-C5aR ab
- Kd (human C5a receptor [1]): 0.175 mg/L
- EC50 (human C5a receptor [2]): 0.3 mg/L
- Kd (human C5a receptor [3]): 0.175 mg/L
- binding result [4]: binds
- binding result [5]: binds
- EC50 (human C5a receptor [6]): 1.1 mg/L
